From patent publication US8512964

Chain of apoER2 (Q14114 whole entry): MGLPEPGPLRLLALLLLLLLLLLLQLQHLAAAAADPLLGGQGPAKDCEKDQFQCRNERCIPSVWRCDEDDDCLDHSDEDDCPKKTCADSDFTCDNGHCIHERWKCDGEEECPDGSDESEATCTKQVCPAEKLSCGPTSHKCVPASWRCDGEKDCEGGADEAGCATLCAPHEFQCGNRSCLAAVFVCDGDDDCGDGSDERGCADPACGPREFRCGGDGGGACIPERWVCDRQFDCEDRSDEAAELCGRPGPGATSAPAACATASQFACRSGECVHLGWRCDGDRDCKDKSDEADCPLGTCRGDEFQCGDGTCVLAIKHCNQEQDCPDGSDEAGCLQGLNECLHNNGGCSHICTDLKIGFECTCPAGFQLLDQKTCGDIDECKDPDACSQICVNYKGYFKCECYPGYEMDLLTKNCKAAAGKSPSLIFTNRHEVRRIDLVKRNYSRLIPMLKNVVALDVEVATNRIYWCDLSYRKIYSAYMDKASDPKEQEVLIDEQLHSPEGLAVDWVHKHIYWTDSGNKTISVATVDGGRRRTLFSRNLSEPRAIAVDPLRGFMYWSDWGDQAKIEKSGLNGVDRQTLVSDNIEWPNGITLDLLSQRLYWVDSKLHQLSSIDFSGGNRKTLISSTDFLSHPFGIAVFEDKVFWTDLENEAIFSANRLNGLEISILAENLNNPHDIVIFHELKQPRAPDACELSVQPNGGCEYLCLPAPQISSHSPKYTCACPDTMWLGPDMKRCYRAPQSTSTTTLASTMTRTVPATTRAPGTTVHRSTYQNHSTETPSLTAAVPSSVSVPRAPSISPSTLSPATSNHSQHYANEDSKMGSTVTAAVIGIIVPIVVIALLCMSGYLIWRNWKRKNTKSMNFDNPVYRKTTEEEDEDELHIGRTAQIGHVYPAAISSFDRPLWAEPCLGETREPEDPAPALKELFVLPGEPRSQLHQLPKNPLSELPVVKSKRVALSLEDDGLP

B1: myosin light chain interacting protein (Mylip) (protein)
chain: MLCYVTRPDAVLMEVEVEAKANGEDCLNQVCRRLGIIEVDYFGLQFTGSKGESLWLNLRNRISQQMDGLAPYRLKLRVKFFVEPHLILQEQTRHIFFLHIKEALLAGHLLCSPEQAVELSALLAQTKFGDYNQNTAKYNYEELCAKELSSATLNSIVAKHKELEGTSQASAEYQVLQIVSAMENYGIEWHSVRDSEGQKLLIGVGPEGISICKDDFSPINRIAYPVVQMATQSGKNVYLTVTKESGNSIVLLFKMISTRAASGLYRAITETHAFYRCDTVTSAVMMQYSRDLKGHLASLFLNENINLGKKYVFDIKRTSKEVYDHARRALYNAGVVDLVSRNNQSPSHSPLKSSESSMNCSSCEGLSCQQTRVLQEKLRKLKEAMLCMVCCEEEINSTFCPCGHTVCCESCAAQLQSCPVCRSRVEHVQHVYLPTHTSLLNLTVI
In the case of B1, the “degradation in the cotransfection assay” value (EGFR receptor) is reported as “Several other members, including LRP-1, LRP-1b and the EGFR receptor are not”, the “degradation in the cotransfection assay” value (LRP-1) is reported as “Several other members, including LRP-1, LRP-1b and the EGFR receptor are not” and the “degradation in the cotransfection assay” value (LRP-1b) is reported as “Several other members, including LRP-1, LRP-1b and the EGFR receptor are not”. For the same protein, the “degradation in the cotransfection assay” value (VLDLR) was “the VLDLR and apoER2, are both capable of being degraded by Idol in our cotransfection assay” and the “degradation in the cotransfection assay” value (apoER2) was “the VLDLR and apoER2, are both capable of being degraded by Idol in our cotransfection assay”.
